Reference: patent US20150010525A1, “Catalytic Tagging System to Study Macro-Molecular Interactions Using Engineered Ubiquitin Ligase and Ubiquitin-Like Proteins to Facilitate Substrate Identification” (THE REGENTS OF THE UNIVERSITY OF CALIFORNIA, priority 2012, published 2015)
Where a SMILES comes first, the peptide text is derived from it. The star is where a group is joined. Cbz = O=C(OCc1ccccc1)*

What was measured:
proteasome = experiment: PGAM5(Δ24) ubiquitination in HeLa cells; type: cell-based; details: HA-Ubiquitin and PGAM5(Δ24)-Myc
Protocol: HeLa cells are transiently co-transfected with HA-Ubiquitin, PGAM5(Δ24)-Myc, with or without XIAP or the treatment of MG132. Ubiquitination of PGAM5(Δ24)-Myc are addressed by immunoprecipitating with Myc antibody then blotting with HA antibody.
HeLa cells were transfected with Lipofectamine 2000 (Invitrogen). Cells were lysed either in M-PER mammalian protein extraction buffer (Thermo) or NP40 buffer (50 mM HEPES pH 7.4, 150 mM NaCl, 1% NP40), supplemented with protease inhibitor cocktail (Thermo). 10% SDS-polyacrylamide gel (PAGE) combined with MOPS running buffer was used to separate full length PGAM5 from the truncated form for immuno-blotting analysis. 4-12% SDS-PAGE gels were generally used for all other analysis. Immuno-precipitation with anti-Myc tag antibody (cell signaling) was performed with a standard procedure using manufacture's instructions.

Jurkat and HeLa cells = experiment: Cytosolic PGAM5(Δ24) immunoblot in apoptotic cells; type: cell-based; details: 1 μM STS, 4 hours
GST-XIAP = biological target: T1, GST-XIAP (Homo sapiens, UniProt P98170); experiment: In vitro GST pull down; type: binding; details: recombinant proteins
T1 construct: made in house
T1 sequence (P98170 whole entry): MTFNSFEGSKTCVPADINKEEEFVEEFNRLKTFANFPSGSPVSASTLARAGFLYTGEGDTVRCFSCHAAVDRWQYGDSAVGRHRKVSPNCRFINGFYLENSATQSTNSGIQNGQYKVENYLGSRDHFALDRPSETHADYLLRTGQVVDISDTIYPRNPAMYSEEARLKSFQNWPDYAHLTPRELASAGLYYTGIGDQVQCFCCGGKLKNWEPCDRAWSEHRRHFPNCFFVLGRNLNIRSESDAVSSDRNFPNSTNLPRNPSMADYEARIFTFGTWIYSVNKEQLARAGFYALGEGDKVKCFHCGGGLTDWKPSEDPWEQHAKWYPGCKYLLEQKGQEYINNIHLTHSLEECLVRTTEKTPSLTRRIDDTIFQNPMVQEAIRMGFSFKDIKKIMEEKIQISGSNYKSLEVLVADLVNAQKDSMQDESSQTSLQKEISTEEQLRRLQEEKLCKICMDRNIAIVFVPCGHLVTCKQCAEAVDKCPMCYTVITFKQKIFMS
Source text: (§1) FIG. 12 illustrates the identification of the proteolytic form of PGAM5 as an XIAP and cIAP1 substrate in vitro. […] Overall, 15 unique peptides from PGAM5 were recovered and account for 43% of the entire protein sequence. (B) An example of LC-MS/MS spectrum from endogenous PGAM5 N-terminal peptide after subtiligase labeling and positive enrichment. A non-natural amino acid, 2-aminobutyric acid (Abu), is a designed tag showing characteristic labeling by subtiligase. (C) PGAM5 is cleaved into a truncated form in cells. Jurkat cells were transiently transfected with C-terminal Myc tagged full length PGAM5 or PGAM5 (Δ2-24). […] (D) N-terminal amino acid sequence alignment of PGAM5(Δ24) and other known evolutionarily conserved IBM sequences. Reaper, Hid, and Grim are Drosophila proteins that bind DIAP1, the Drosophila IAP. Amino acids are colored according to their chemical properties. (E) XIAP binds PGAM5(Δ24) but not the full length PGAM5. Recombinant GST fused XIAP, PGAM5(FL), and PGAM5(Δ24) were used for in vitro GST pull down experiments. (F) PGAM5(Δ24) binds to XIAP and cIAP1 independent of the RING domain. […] The resins were washed and proteins were eluted and analyzed with SDSPAGE and coomassie blue staining. […] The ubiquitination assay was performed in vitro and PGAM5 is detected with an anti-His antibody.

XIAP = XIAP (Homo sapiens, UniProt P98170); experiment: In vitro PGAM5 ubiquitination assay with XIAP; type: biochemical; details: 50 nM UBE1, 200 nM UbcH5b, 700 nM XIAP, 1.5 μM PGAM5-His6
Chain of XIAP (P98170 whole entry): as above
Source text: as §1, with “antibody. […]” for “antibody.”

cIAP1 [1] = biological target: T2, cIAP1 (Homo sapiens, UniProt Q13490); experiment: In vitro PGAM5 ubiquitination assay with cIAP1; type: biochemical; details: 50 nM UBE1, 200 nM UbcH5b, 700 nM cIAP1, 1.5 μM PGAM5-His6
T2 construct: expressed in transfected cells; host or cells: HEK293
T2 sequence (Q13490 whole entry): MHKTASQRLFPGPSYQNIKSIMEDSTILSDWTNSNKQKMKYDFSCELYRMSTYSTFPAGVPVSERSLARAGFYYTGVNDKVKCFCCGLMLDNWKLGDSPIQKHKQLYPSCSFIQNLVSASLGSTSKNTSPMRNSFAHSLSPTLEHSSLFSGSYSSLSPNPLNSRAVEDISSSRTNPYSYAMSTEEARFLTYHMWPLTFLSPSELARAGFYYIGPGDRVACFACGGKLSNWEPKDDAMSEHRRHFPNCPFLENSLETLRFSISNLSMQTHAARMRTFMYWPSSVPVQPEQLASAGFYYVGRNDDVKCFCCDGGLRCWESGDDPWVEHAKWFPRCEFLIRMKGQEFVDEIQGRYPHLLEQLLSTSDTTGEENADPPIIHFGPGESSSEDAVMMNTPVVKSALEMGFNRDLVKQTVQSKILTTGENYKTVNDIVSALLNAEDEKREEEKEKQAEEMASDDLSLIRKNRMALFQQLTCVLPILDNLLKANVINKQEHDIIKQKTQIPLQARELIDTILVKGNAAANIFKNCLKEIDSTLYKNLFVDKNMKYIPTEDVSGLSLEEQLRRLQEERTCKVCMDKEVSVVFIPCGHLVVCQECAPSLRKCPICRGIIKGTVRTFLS
Source text: as §1, with “antibody. […]” for “antibody.”

cIAP1 [2] = biological target: T2, cIAP1; experiment: Co-immunoprecipitation in HEK293 cells; type: cell-based; details: Flag-cIAP1 co-transfection, anti-Myc IP
Protocol: FIG. 13 illustrates functional studies of PGAM5 in cells. (A) PGAM5(Δ24) binds XIAP and cIAP1 in vivo. On the left, HEK293 cells were cotransfected with Flag-cIAP1 and PGAM5(FL)-Myc or PGAM5(Δ24)-Myc. Total cell lysates were analyzed by immune-blotting with anti-Flag and anti-Myc antibodies (bottom two panels). Anti-Myc immune-precipitates (IP) were subjected to immunoblot analysis using anti-Myc and anti-Flag antibodies (top two panels). On the right, PGAM5(Δ24)-Myc was transiently expressed in HEK293 cells. 36 hours after transfection, cells were lysed and subjected for Immuno-precipitation with either anti-Myc antibody or an isotype control antibody (mouse IgG). Proteins in the whole cell lysate (bottom three panels) and proteins that bind to the antibody conjugated sepharose beads (top three panels) were assayed with immunoblotting. An asterisk indicates the position of the immunoglobulin heavy chain. (B) XIAP and cIAP1 stimulate PGAM5(Δ24) ubiquitination in vivo. […] 24 hours after transfection, cell viability was measured by Annexin V staining. […] Error bars represent SEM calculated from triplicate experiments. […] Cell viability is then immediately measured by CellTiter-Glo luminescent assay. […] PGAM5 levels are analyzed with anti-Myc immune-blotting before STS treatment. Error bars represent SEM calculated from triplicate samples. […]

In the case of CC(C)C[C@@H](C=O)NC(=O)[C@H](CC(C)C)NC(=O)[C@H](CC(C)C)NC(=O)OCc1ccccc1 [MG132] (Cbz-Leu-Leu-Leu-aldehyde), the “level of ubiquitination of PGAM5(Δ24)” value (proteasome) is reported as “increased”.

CN[C@@H]1C[C@H]2O[C@@](C)([C@@H]1OC)n1c3ccccc3c3c4c(c5c6ccccc6n2c5c31)C(=O)NC4 [STS, staurosporin] was tested, and the “cytosolic level of PGAM5(Δ24)” value (Jurkat and HeLa cells) was “significant increase in PGAM5(Δ24)”.

B1: PGAM5(Δ24): cleaved form of PGAM5 lacking the first 24 residues, neo-IBM sequence starting with Ala25 (protein, UniProt Q96HS1 25-289, looked up, fragment)
chain: AVAVGKPRAGGDAEPRPAEPPAWAGGARPGPGVWDPNWDRREPLSLINVRKRNVESGEEELASKLDHYKAKATRHIFLIRHSQYHVDGSLEKDRTLTPLGREQAELTGLRLASLGLKFNKIVHSSMTRAIETTDIISRHLPGVCKVSTDLLREGAPIEPDPPVSHWKPEAVQYYEDGARIEAAFRNYIHRADARQEEDSYEIFICHANVIRYIVCRALQFPPEGWLRLSLNNGSITHLVIRPNGRVALRTLGDTGFMPPDKITRS
With B1 the “binding to XIAP (pull down)” value (GST-XIAP) was “pulled down”, the “ubiquitination by XIAP” value (XIAP) was “ubiquitinates” and the “ubiquitination by cIAP1” value (cIAP1 [1]) was “ubiquitinates”. The “binding to cellular cIAP1” value (cIAP1 [2]) was “specifically binds”.
